Measured values from PMC10675845.

Columns and labels:
Assay in all cases: single-cell, single-molecule pull-down
[1] = biological target: GFP::CDC-42(S71A) (C. elegans) (UniProt Q05062)
GFP::CDC-42 (C. elegans) = GFP::CDC-42 (C. elegans) (UniProt Q05062)
[2] = biological target: GFP::CDC-42(S71E) (C. elegans) (UniProt Q05062)

Substance: HaloTag::aPKC (from UniProt Q19266 1-597) (enzyme)
- koff [1]: 0.057 s⁻¹
- koff (GFP::CDC-42 (C. elegans)): 0.057 s⁻¹
- koff [2]: 0.099 s⁻¹
